Each binder was assayed against T1, HLA-A*02:01 class I complex (conditional p*HLA*02:01, biotinylated heavy chain with beta2-microglobulin) (human, biotinylated heavy chain) (assay: UV peptide exchange, HLA class I ELISA, % of Pos peptide;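 note: Streptavidin-captured HLA complexes after exchange detected via HRP anti-human B2M antibody, absorbance read, colour scales with intact complex, normalized to exchange control peptide as 100%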).
T1 construct: UV-labile peptide p* is cleaved and exchanged for the test peptide; also called HLA 2.1
NMDEYVHNV (also called M111) [SF3B1_R625H5 mimic peptide NMDEYVHNV] was tested, and the Average % was 83.6%, the “Exch I (%)” value was 86.6% and the “Exch II (%)” value was 80.6%. With NMDEYVHNI (also called M115) [SF3B1.R625H13 mimic peptide NMDEYVHNI] the Average % was 68.4%, the “Exch I (%)” value was 73.6% and the “Exch II (%)” value was 63.1%. NLDEYVHNV (also called M112) [SF3B1_R625H6 mimic peptide NLDEYVHNV] was tested, and the Average % was 88.2%, the “Exch I (%)” value was 88.1% and the “Exch II (%)” value was 88.4%. NLDEYVHNL (also called M114) [SF3B1.R625H10 mimic peptide NLDEYVHNL] was tested, and the Average % was 55.1%, the “Exch I (%)” value was 57.2% and the “Exch II (%)” value was 53%. In the case of NLDEYVHNI (also called M116) [SF3B1.R625H14 mimic peptide NLDEYVHNI], the Average % is reported as 70.1%, the “Exch I (%)” value is reported as 71.1% and the “Exch II (%)” value is reported as 69%. With GLKDLLNPV (also called M081) [PIK3CA_E453K5 mimic peptide GLKDLLNPV] the Average % was 74.9%, the “Exch I (%)” value was 73.5% and the “Exch II (%)” value was 76.3%. With GMKDLLNPV (also called M082) [PIK3CA_E453K6 mimic peptide GMKDLLNPV] the Average % was 77.5%, the “Exch I (%)” value was 74.7% and the “Exch II (%)” value was 80.4%. In the case of LLGRNSFEL (also called M221) [TP53_V272M2 mimic peptide LLGRNSFEL], the Average % is reported as 98.4%, the “Exch I (%)” value is reported as 101% and the “Exch II (%)” value is reported as 95.7%. With LLGRNSFEI (also called M222) [TP53_V272M3 mimic peptide LLGRNSFEI] the Average % was 66.7%, the “Exch I (%)” value was 75.3% and the “Exch II (%)” value was 58%. With QLWVDSTPI (also called M181) [TP53_P152L3 mimic peptide QLWVDSTPI] the Average % was 67.9%, the “Exch I (%)” value was 62% and the “Exch II (%)” value was 73.8%. With QLWVDSTPV (also called M182) [TP53_P152L4 mimic peptide QLWVDSTPV] the Average % was 95.7%, the “Exch I (%)” value was 95.6% and the “Exch II (%)” value was 95.7%. For VMSDAISAL (also called M124; SOX17.S40317) [SOX17.S403I7 mimic peptide VMSDAISAL], the Average % was 77.4%, the “Exch I (%)” value was 75.3% and the “Exch II (%)” value was 79.5%. With VMSDAISAV (also called M122; SOX17_S40313) [SOX17_S403I3 mimic peptide VMSDAISAV] the Average % was 92.4%, the “Exch I (%)” value was 96.9% and the “Exch II (%)” value was 87.9%. VLSDAISAL (also called M123; SOX17_S40316) [SOX17_S403I6 mimic peptide VLSDAISAL] was tested, and the Average % was 87.3%, the “Exch I (%)” value was 91.9% and the “Exch II (%)” value was 82.6%. In the case of VVSDAISAV (also called M120; SOX17.S4031) [SOX17.S403I mutant peptide VVSDAISAV], the Average % is reported as 86.2%, the “Exch I (%)” value is reported as 88.5% and the “Exch II (%)” value is reported as 83.8%. AMNNMFCQV (also called M162) [TP53_K132N6 mimic peptide AMNNMFCQV] was tested, and the Average % was 70.1%, the “Exch I (%)” value was 69.4% and the “Exch II (%)” value was 70.8%. ILNREIDFV (also called M091) [PIK3CA_G118D5 mimic peptide ILNREIDFV] was tested, and the Average % was 70.4%, the “Exch I (%)” value was 62.1% and the “Exch II (%)” value was 78.7%. IMNREIDFV (also called M092) [PIK3CA_G118D6 mimic peptide IMNREIDFV] was tested, and the Average % was 66.7%, the “Exch I (%)” value was 68.6% and the “Exch II (%)” value was 64.9%. In the case of ILNREIDFL (also called M093) [PIK3CA_G118D9 mimic peptide ILNREIDFL], the Average % is reported as 56.2%, the “Exch I (%)” value is reported as 51.1% and the “Exch II (%)” value is reported as 61.3%. For RLIHRDLAV (also called M242) [ERBB2_V842I5 mimic peptide RLIHRDLAV], the Average % was 73.6%, the “Exch I (%)” value was 69.9% and the “Exch II (%)” value was 77.3%. For RMIHRDLAL (also called M241; ERBB2_V842110) [ERBB2_V842I10 mimic peptide RMIHRDLAL], the Average % was 53.7%, the “Exch I (%)” value was 51.5% and the “Exch II (%)” value was 55.8%. In the case of RMIHRDLAV (also called M243; ERBB2_V84216) [ERBB2_V842I6 mimic peptide RMIHRDLAV], the Average % is reported as 57.6%, the “Exch I (%)” value is reported as 56.7% and the “Exch II (%)” value is reported as 58.5%. SMTCTYFPL (also called M211) [TP53_S127F11 mimic peptide SMTCTYFPL] was tested, and the Average % was 53.5%, the “Exch I (%)” value was 56.4% and the “Exch II (%)” value was 50.6%. With KLYPVQLWI (also called M134) [TP53.C141Y12 mimic peptide KLYPVQLWI] the Average % was 73.9%, the “Exch I (%)” value was 81.3% and the “Exch II (%)” value was 66.4%. With KMYPVQLWV (also called M132) [TP53_C141Y3 mimic peptide KMYPVQLWV] the Average % was 76.9%, the “Exch I (%)” value was 72.7% and the “Exch II (%)” value was 81%. LMVVGAAGV (also called M052) [KRAS_G12A3 mimic peptide LMVVGAAGV] was tested, and the Average % was 51.3%, the “Exch I (%)” value was 51% and the “Exch II (%)” value was 51.5%. With LMVVGAVGV (also called M072) [KRAS_G12V3 mimic peptide LMVVGAVGV] the Average % was 36.1%, the “Exch I (%)” value was 39% and the “Exch II (%)” value was 33.3%. LLVVGAVGV (also called M071) [KRAS_G12V2 mimic peptide LLVVGAVGV] was tested, and the Average % was 35.9%, the “Exch I (%)” value was 31.8% and the “Exch II (%)” value was 40.1%. LLVVGACGV (also called M061) [KRAS_G12C2 mimic peptide LLVVGACGV] was tested, and the Average % was 34.8%, the “Exch I (%)” value was 36.4% and the “Exch II (%)” value was 33.1%. In the case of CYLYYYSYLI (also called M105) [PTEN.R173C10 mimic peptide CYLYYYSYLI], the Average % is reported as 23.3%, the “Exch I (%)” value is reported as 27.8% and the “Exch II (%)” value is reported as 18.9%. In the case of GLAPPQLLV (also called M141) [TP53_H193L5 mimic peptide GLAPPQLLV], the Average % is reported as 42.2%, the “Exch I (%)” value is reported as 40.3% and the “Exch II (%)” value is reported as 44.1%. GMAPPQYLV (also called M152) [TP53_H193Y6 mimic peptide GMAPPQYLV] was tested, and the Average % was 21.4%, the “Exch I (%)” value was 22.5% and the “Exch II (%)” value was 20.3%. With GLAPPQYLV (also called M151) [TP53_H193Y5 mimic peptide GLAPPQYLV] the Average % was 48.2%, the “Exch I (%)” value was 48.8% and the “Exch II (%)” value was 47.6%.
